Residue numbers refer to the chain shown, from its start.
B1: FP178 (Fc fusion)
chain: TALGRRKAEDRIKETLWADGVKIDEKDFEHIKSSHEDYFAVEYGKGSGYYDVNKKMDSEDSALCVGAVVTNMFHWWVDQNRENIEKFKKQDPENNGVMKFEGVKEATVDELNEFYRDNRDNYADQSRFFDLIKKHFGNKALNPEELFELYFNGFYYGSSHRYIEDNEPAQNNLFSKVLENNKLLNPERSYGIDGFSNNVINALKSHKVLGLVYTTPLRYRHIISMWGADIDQDGKVKAIYVTDSDDREITFNDNSKRRIGMIRYDVLVDDNGNIRFTGKGATHKEEGAIYAGLYSLSRGDEVWEDYFKKYPEVQENLDKTHTCPPCPAPEAAGAPSVFLFPPKPKDTLMISRTPEVTCVVVDVSHEDPEVKFNWYVDGVEVHNAKTKPREEQQNSTYRVVSVLTVLHQDWLNGKEYKCKVSNKALKAPIEKTISKAKGQPREPQVYTLPPSRDELTKNQVSLTCLVKGFYPSDIAVEWESNGQPENNYKTTPPVLDSDGSFFLYSKLTVDKSRWQQGNVFSCSVMHEALHNHYTQKSLSLSPG
B2: FP179 (Fc fusion)
chain 1: B1 chain with T463W
chain 2: DKTHTCPPCPAPEAAGAPSVFLFPPKPKDTLMISRTPEVTCVVVDVSHEDPEVKFNWYVDGVEVHNAKTKPREEQQNSTYRVVSVLTVLHQDWLNGKEYKCKVSNKALKAPIEKTISKAKGQPREPQVYTLPPSRDELTKNQVSLSCAVKGFYPSDIAVEWESNGQPENNYKTTPPVLDSDGSFFLVSKLTVDKSRWQQGNVFSCSVMHEALHNHYTQKSLSLSPG
B3: FP16 (Fc fusion)
chain: DKTHTCPPCPAPEAAGAPSVFLFPPKPKDTLMISRTPEVTCVVVDVSHEDPEVKFNWYVDGVEVHNAKTKPREEQQNSTYRVVSVLTVLHQDWLNGKEYKCKVSNKALKAPIEKTISKAKGQPREPQVYTLPPSRDELTKNQVSLTCLVKGFYPSDIAVEWESNGQPENNYKTTPPVLDSDGSFFLYSKLTVDKSRWQQGNVFSCSVMHEALHNHYTQKSLSLSPGGGGSGGGGSGGGGSTALGRRKAEDRIKETLWADGVKIDEKDFEHIKSSHEDYFAVEYGKGSGYYDVNKKMDSEDTALCVGAVVTNMFHWWVDQNRENIEKFKKQDPENNGVMKFNGVKEATVDELNHFYKEYQSNKYADQSRFFDLIKKHFGNKALNPEELFELYFNGFYYGSSHRYIEDNKPAQNNLFSKVLENNKLLNPERSYGIDGFSNNVINALKSHKVLGLVHTTPLRYRHIISMWGADIDQDGKVKAIYVTDSDDREITFNDNSKRRIGMIRYDVLVDDNGNIRFTGKGATHKEEGAIYAGLYSLSRGDEVWEDYFKKYPEVQENL
B4: FP13 (Fc fusion)
chain: DKTHTCPPCPAPEAAGAPSVFLFPPKPKDTLMISRTPEVTCVVVDVSHEDPEVKFNWYVDGVEVHNAKTKPREEQQNSTYRVVSVLTVLHQDWLNGKEYKCKVSNKALKAPIEKTISKAKGQPREPQVYTLPPSRDELTKNQVSLTCLVKGFYPSDIAVEWESNGQPENNYKTTPPVLDSDGSFFLYSKLTVDKSRWQQGNVFSCSVMHEALHNHYTQKSLSLSPGGGGSGGGGSGGGGSTALGRRKAEDRIKETLWADGVKIDEKDFEHIKSSHEDYFAVEYGKGSGYYDVNKKMDSEDSALCVGAVVTNMFHWWVDQNRENIEKFKKQDPENNGVMKFEGVKEATVDELNHFYRDNRDNYADQSRFFDLIKKHFGNKALNPEELFELYFNGFYYGSSHRYIEDNEPAQNNLFSKVLENNKLLNPERSYGIDGFSNNVINALKSHKVLGLVHTTPLRYRHIISMWGADIDQDGKVKAIYVTDSDDREITFNDNSKRRIGMIRYDVLVDDNGNIRFTGKGATHKEEGAIYAGLYSLSRGDEVWEDYFKKYPEVQENL
B5: FP19 (Fc fusion)
chain: B4 chain with H453Y
B6: FP183 (Fc fusion)
chain 1: DKTHTCPPCPAPEAAGAPSVFLFPPKPKDTLMISRTPEVTCVVVDVSHEDPEVKFNWYVDGVEVHNAKTKPREEQQNSTYRVVSVLTVLHQDWLNGKEYKCKVSNKALKAPIEKTISKAKGQPREPQVYTLPPSRDELTKNQVSLWCLVKGFYPSDIAVEWESNGQPENNYKTTPPVLDSDGSFFLYSKLTVDKSRWQQGNVFSCSVMHEALHNHYTQKSLSLSPGAEEEKAEEEKAEEEKTALGRRKAEDRIKETLWADGVKIDEKDFEHIKSSHEDYFAVEYGKGSGYYDVNKKMDSEDSALCVGAVVTNMFHWWVDQNRENIEKFKKQDPENNGVMKFEGVKEATVDELNEFYRDNRDNYADQSRFFDLIKKHFGNKALNPEELFELYFNGFYYGSSHRYIEDNEPAQNNLFSKVLENNKLLNPERSYGIDGFSNNVINALKSHKVLGLVYTTPLRYRHIISMWGADIDQDGKVKAIYVTDSDDREITFNDNSKRRIGMIRYDVLVDDNGNIRFTGKGATHKEEGAIYAGLYSLSRGDEVWEDYFKKYPEVQENL
chain 2: B2 chain 2
B7: FP191 (Fc fusion)
chain 1: DKTHTCPPCPAPEAAGAPSVFLFPPKPKDTLMISRTPEVTCVVVDVSHEDPEVKFNWYVDGVEVHNAKTKPREEQQNSTYRVVSVLTVLHQDWLNGKEYKCKVSNKALKAPIEKTISKAKGQPREPQVYTLPPSRDELTKNQVSLWCLVKGFYPSDIAVEWESNGQPENNYKTTPPVLDSDGSFFLYSKLTVDKSRWQQGNVFSCSVMHEALHNHYTQKSLSLSPGAPAPAPAPAPAPAPTALGRRKAEDRIKETLWADGVKIDEKDFEHIKSSHEDYFAVEYGKGSGYYDVNKKMDSEDSALCVGAVVTNMFHWWVDQNRENIEKFKKQDPENNGVMKFEGVKEATVDELNEFYRDNRDNYADQSRFFDLIKKHFGNKALNPEELFELYFNGFYYGSSHRYIEDNEPAQNNLFSKVLENNKLLNPERSYGIDGFSNNVINALKSHKVLGLVYTTPLRYRHIISMWGADIDQDGKVKAIYVTDSDDREITFNDNSKRRIGMIRYDVLVDDNGNIRFTGKGATHKEEGAIYAGLYSLSRGDEVWEDYFKKYPEVQENL
chain 2: B2 chain 2
B8: FP184 (Fc fusion)
chain 1: DKTHTCPPCPAPEAAGAPSVFLFPPKPKDTLMISRTPEVTCVVVDVSHEDPEVKFNWYVDGVEVHNAKTKPREEQQNSTYRVVSVLTVLHQDWLNGKEYKCKVSNKALKAPIEKTISKAKGQPREPQVYTLPPSRDELTKNQVSLWCLVKGFYPSDIAVEWESNGQPENNYKTTPPVLDSDGSFFLYSKLTVDKSRWQQGNVFSCSVMHEALHNHYTQKSLSLSPGEAAAKEAAAKEAAAKTALGRRKAEDRIKETLWADGVKIDEKDFEHIKSSHEDYFAVEYGKGSGYYDVNKKMDSEDSALCVGAVVTNMFHWWVDQNRENIEKFKKQDPENNGVMKFEGVKEATVDELNEFYRDNRDNYADQSRFFDLIKKHFGNKALNPEELFELYFNGFYYGSSHRYIEDNEPAQNNLFSKVLENNKLLNPERSYGIDGFSNNVINALKSHKVLGLVYTTPLRYRHIISMWGADIDQDGKVKAIYVTDSDDREITFNDNSKRRIGMIRYDVLVDDNGNIRFTGKGATHKEEGAIYAGLYSLSRGDEVWEDYFKKYPEVQENL
chain 2: B2 chain 2

How the values were obtained:
[1] = target: Human IgE antibody (human); experiment: cell-based or functional assay
[2] = target: IgG1; experiment: cell-based or functional assay

Binder | EC50 CE-SDS IgE [1] [nM] | EC50 MSD IgE [1] [nM] | EC50 CE-SDS IgG1 [2] [nM]
B1 | 2.61 | 0.317 | 
B2 | 6.64 | 0.424 | 
B3 | 47 |  | 8720
B4 | 31.9 |  | 21300
B5 | 21.8 | 1.2 | 7240
B6 | 7.63 | 0.548 | 
B7 | 1.51 | 0.555 | 
B8 |  | 0.475 | 
